This experiment deals with T1, tryptophan 2-C-methyltransferase (TsrM) from Streptomyces laurentii (Streptomyces laurentii, UniProt C0JRZ9 1-599).
T1 construct: TsrM, tryptophan 2-C-methyltransferase of the thiostrepton synthesis pathway, Streptomyces laurentii; As purified it holds 0.9 cobalamin and 3.5 Fe per monomer ([4Fe-4S] cluster); The methods describe no TEV cleavage for TsrM, so the His-tag was probably still on the protein; also called cobalamin-dependent rSAM methyltransferase TsrM; source: E. coli BL21(DE3), coexpressed with the Btu operon, …
T1 sequence (looked up): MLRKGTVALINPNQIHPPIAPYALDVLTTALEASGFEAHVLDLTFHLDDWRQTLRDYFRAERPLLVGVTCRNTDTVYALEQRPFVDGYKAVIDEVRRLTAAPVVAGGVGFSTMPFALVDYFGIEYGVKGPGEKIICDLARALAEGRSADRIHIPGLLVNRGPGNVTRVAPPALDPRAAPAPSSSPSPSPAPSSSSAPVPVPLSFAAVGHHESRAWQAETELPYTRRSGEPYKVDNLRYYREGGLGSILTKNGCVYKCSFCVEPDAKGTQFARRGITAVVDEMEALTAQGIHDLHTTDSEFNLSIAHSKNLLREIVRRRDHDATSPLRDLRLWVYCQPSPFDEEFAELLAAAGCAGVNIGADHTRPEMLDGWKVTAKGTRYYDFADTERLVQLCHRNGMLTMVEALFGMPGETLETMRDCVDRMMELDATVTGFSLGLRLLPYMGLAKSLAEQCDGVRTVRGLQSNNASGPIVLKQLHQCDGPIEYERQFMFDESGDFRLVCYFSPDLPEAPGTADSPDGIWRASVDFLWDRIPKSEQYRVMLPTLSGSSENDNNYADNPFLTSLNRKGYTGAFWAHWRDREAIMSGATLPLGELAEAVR
The experiment can be described thus: BLI; biotinylated ferredoxins (10 µg/mL) bound to streptavidin biosensors, plunged into TsrM solution at various concentrations (80 s association, 60 s dissociation); BLItz system in an anaerobic chamber (O2 <2 ppm); 25 mM Hepes pH 7.5, 300 mM KCl, 5% glycerol with Tween 20 and BSA. The settings on record: both partners purified.

B1: Streptomyces cattleya ferredoxin Fdx1 (natural protein, UniProt F8K3M7 1-106, looked up)
chain: MTYVIAQPCVDVKDKACIEECPVDCIYEGQRSLYIHPDECVDCGACEPVCPVEAIFYEDDTPEEWKDYYKANVEFFDELGSPGGASKLGLIERDHPFIAALPPQNG
modifications: biotin (incubation with one equivalent of NHS-PEG4-Biotin)
notes: ferredoxin Fdx1 of Streptomyces cattleya, GenBank AEW96347.1; 7.4 Fe atoms per monomer after reconstitution (two [4Fe-4S] clusters); also called double-cluster [4Fe-4S] ferredoxin; not shown: His-tag, N-terminal, cleaved
Consider B1, for which the Kd was 40 µM.
